Among the data in paper PMC3762337 are stoichiometry N values, retold here.

The assay has as its target Dyn1_(387kD) (S. cerevisiae) (UniProt P36022). Description: single-molecule GFP fluorescence intensity; GFP-tagged motors on surface-immobilised Cy5 MTs, with ATP or apyrase, 5 min; intensities of GFP spots compared with GST-Dyn1 331kD.

As a reminder, the stoichiometry N is the number of molecules, sites or subunits per partner or assembly.

Turning to Dyn1_(387kD), P36022 732-4092, the stoichiometry N turned out to be 2.
